According to the nanobody polyreactivity screen of Harvey et al. (2022):

Assay: yeast display, Sf9 membrane polyspecificity reagent, FACS + sequencing; frameworks hold sequencing errors
In short: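 Nanobodies from a synthetic yeast display library (Saccharomyces cerevisiae BJ5465), induced 36–48 hours with galactose, were stained 1 hour at 4 °C with 10% biotinylated, detergent-solubilized Sf9 membrane reagent, enriched on streptavidin microbeads, then FACS-sorted. Anti-HA (expression) and streptavidin (reagent binding) fluorescence set low and high (top ~1%) gates. Polyreactivity labels come from the gate of origin. Genes were colony-PCR amplified, MiSeq 2 × 250 sequenced and filtered by CDR length.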

Sequence | polyreactivity (PSR sort gate)
QVQLVESGGGLVQAGGSLSLSCAASGRIFGHNAMGWYRQAPGKERELVATISSGVRTNYADSVKGRFTISRDNAKNTVYLQMNSLKPEDTAVYYCATKTYQFGYSSYYYWGQGTQVTVSS | high polyreactivity
QVQLVESGGGLVQAGGSLSLSCAASGRIFSTYAMGWYRQAPGKERELVAAITSRGTSTYYADSVKGRFTISRDNAKNTVYLQINSLKPEDSAVYYCAARRERWSSSIVGYWGQGTQVTVSS | high polyreactivity
QVQLVESGGGLVQAGGSLSLSCAASGRIFVSYAMGWYRQAPGKERELVAAISYSGGSTYYADSVKGRFTISRDNAKNTVYLQMNSLKPEDTAVYYCAKDGGVYAPAGDDDYWGQGTQVTVSS | low polyreactivity
QVQLVESGGGLVQAGGSLSLSCAASGRIIKFYAMGWYRQAPGKERELVARISRSGGRTYYSDSVKGRFTISRDNAKNTVYLQMNSLKPEDPAVYYCNADGDNRRDRYEYWGQGTQVTVSS | low polyreactivity
QVQLVESGGGLVQAGGSLSLSCAASGRSFFNYAMGWYRQAPGKERELVAAISFSDGSTYYADSVKGRFTISRDNAKNTVYLQMNSLKPEDTAVYYCAAEPDYVYYRSDQALFDYWGQGTQVTVSS | high polyreactivity
QVQLVESGGGLVQAGGSLSLSCAASGRTFDDNAMGWYRQAPGKERELVAAISSTGSTNYADSLKGRFTISRDNAKNTVYLQMNSLKPEDTAVYYCNTDGGHERAYYYWGQCTQVTVSS | low polyreactivity
QVQLVESGGGLVQAGGSLSLSCAASGRTLYLYTMGWYRQAPGKERELVASINWRGSTYYADSVKGRFTISRDNAKNTVYLQMNSLKPEDTAVYYCNVGGPSGGMYYWGQGTQVTVSS | low polyreactivity
QVQLVESGGGLVQAGGSLSLSCAASGSIFDYYDMGWYRQSPGKERQLVAAITGSGGNTYYADSVKGRFTISRDNAKNTVYLQMNSLKPEDTAVYYCAAYGLYGAHTGYGSWGQCTQVTVSS | high polyreactivity
QVQLVESGGGLVQAGGSLSLSCAASGSIFFYAMGGYRPAPGKERELVADITYTGGSKYADSVKGRFTISRDNAKYTVYLQMNSLKPEDTAVYSCAKLDGGLFDYWGHGTQVTVSS | low polyreactivity
QVQLVESGGGLVQAGGSLSLSCAASGSIFGDYVLGWYRQAPGKERELVAAINRGGSTYYADSVKGRFTISRDNAKNTVYLQMNSLKPEDTAVYYCAAGYPSWYYGYPYDSWGLGTQVTVSS | low polyreactivity
QVQLVESGGGLVQAGGSLSLSCAASGSIFPYYAMGWYRQAPGKESELVAAISRGGGTTYYADSVKGRFTISRDNAKNSVYLQMNSLKPEDTAVYSGAARRWGEYDYWGQGTQVTVSS | high polyreactivity
QVQLVESGGGLVQAGGSLSLSCAASGSIFVRYAMGWSRHAPWKERELVAAISVRGGRTYYAYSVKGRFTISRDNAKNTVYLQMNRLKPEATAVYYCAAQLYYYYSYVPPGGYWGQGTQVTVSA | high polyreactivity
QVQLVESGGGLVQAGGSLSLSCAASGSILPYNTMGWDRQAPGKERELVAAITSGVGSTYADSVKGRFTISRDNAKNTVYLQMNSLKPEDTAVYYCNASESAIPIGDLGDYWGQGTQVTVSS | low polyreactivity
QVQLVESGGGLVQAGGSLSLSCAASGSILQLYAMGWYRQAPGTERELVAAITESAGSKSYADSVKGRFTISRDNAKITVYLQMNSLKPEDTAVYYCNAEYSAYSGFDVEWSLDYDYWGQGTQVTVSS | low polyreactivity
QVQLVESGGGLVQAGGSLSLSCAASGSISLVYAMGWYRQAPGKERELVAAISASGGRTYYADSVKGRFTISRDNAKNTVYLQMNSLKPEDTAVYYFSKDVKKIEFDYWGQGTQVTVSS | high polyreactivity
QVQLVESGGGLVQAGGSLSLSCAASGSNFKAYAMGWYRQAPGKERELVAAITKSGGRTYYADSVKGRFTISRDNAKNTVYLQMKSLNPEDTAVYSCAAVFRPDSSAYRYYYWGQGTQVTVST | high polyreactivity
QVQLVESGGGLVQAGGSLSLSCAASGSSFGGYTMGWYRQAPGKERELVAAISRRGGNTYYADSVKGRFTISRDNAKNTVYLQMNSLNPEETAVYYCAVRWPSARIPVKLDYWGQGTQVTVSS | high polyreactivity
QVQLVESGGGLVQAGGSLSLSCAASGSTFAYYAMGWSRQAPGKERELVAGITWTGGSTYYADSVKGRFTISRDNAKNTVYLQMNSLKPEDTAVYYCAVTYPYGYEYDHWGQGSQVTVSS | low polyreactivity
QVQLVESGGGLVQAGGSLSLSCAASGSTFAYYAMGWYRQAPGKERELVAGITWTGGSTYYADSVKGRFTISRDNAKHTDYLQMNSLKPEDTAVYYCAVTYPYGYEYDHWGQGSQVTVSS | low polyreactivity
QVQLVESGGGLVQAGGSLSLSCAASGSTFYENAMGWYRQAPGKERELVAAITWSGGRTYYADSVKGRFTISRDNAKNTVYLQMNSLKPEDTAVYYCNARARSRKFYYWGQGTQVTVSS | high polyreactivity
QVQLVESGGGLVQAGGSLSLSCAASGSTFYRYAKGWYRQAPGKERELVAAISTRGGSTYYADSVKGRFTISRDNAKNTVYLQMNSLKPEDTAVYYCAAKSGSPDDYDYWGHGTQVTVSS | high polyreactivity
QVQLVESGGGLVQAGGSLSLSCAASGSTLRYYDMGWYRQAPGKERELVAAISRGGSTYYADSVKGRFTISRDNAKNTVYLQMNSLKPEDTAVYYCNKEYPSSYEYDYWGQGTQVTVSS | low polyreactivity

Sequence | polyreactivity (PSR sort gate)
QVQLVESGGGLVQAGGSLSLSCAASGSTYFYAMGWYRQAPGKERELVAAISFSDGITYYADSVKGRFTISRDNAKNTVYLQMNSLKPEDTAVYYCAADYISLREEDYWGQGTQVTVSS | high polyreactivity
QVQLVESGGGLVQAGGSLSLSCAATGSIFGGNAMGWKRQAPGKERELVATITDRGSSTYYADSVKGRFTISRDNAKNTVYLRMHSLNPDDTAVYYCANAFPDVPEHDYGGQGTQVTVSS | low polyreactivity
QVQLVESGGGLVQAGGSLSLSCAATGTNFCHNAMGWYRPAPWKERELGAGITSVGSTYFAYSVKGRFTISRDNAKNTVYLQMNSLKPEDTAVYYSAKGYDFRRSYEYWGQGTQVNVSS | low polyreactivity
QVQLVESGGGLVQAGGSLSLSCASSGSTLTYYAMGWYRQEPGKEREFVAAIRWSSGNTYYADSVKGRFTISRDNAKNTVYLQMNSLKPEDTAVYYCAKERRYTGRRSYEYDYWGQGTQVTVSS | low polyreactivity
QVQLVESGGGLVQAGGSLSLSFAASGRTFARYAMGWYRQAPGKEREFVAGINWSGGGTYYADSVKGRFTISRDNAKNTVYLQMNSLKTEDTAVYYCAAVPTNRYGYWGQGTQVTVSS | high polyreactivity
QVQLVESGGGLVQAGGSLTLSCAASGSTFDYNVMGWYRQAPGKERELVAAISNAGTTNYADSVKGRFTISRDNAKNTVYLLMNSLKPEDTAVYYCAADLGYYAAVTKYAEYDYWGQGTQVTVSS | low polyreactivity
QVQLVESGGGLVQAGGSPRLSCAASGRIFGAYAMGWYRQAPGQERELVAGNRSVGSTNYADSVKGRFTISRDNAKNTVYFQMNSLKPEDTAVYYCAARLWHLSYAGQGGDYWGQGTQVTVSS | low polyreactivity
QVQLVESGGGLVQAGGSRRISCAASGITFKWYAMGWYRQAPGKERELVAAISWSTGSTYYADSVKGRFTISRDNAKNTVYLQMNSLKPEDTAVSDCAADLQLPNLGDSYDYWGQGTQVTVSS | high polyreactivity
QVQLVESGGGLVQAGGSRRLICAASGRIYYYMGWYRQEPGQERELVAASTSSGVSTYYADSVKGRFTISRDNAKNTVDLQMNSLKPEDTAVYYCAAERVYIFWFTHEIFKYWGQGTQVTVSS | high polyreactivity
QVQLVESGGGLVQAGGSRRLRCAASGRIFKNYAMGWYRQAPGKERELVAAMTWSVGSTYYADSVKGRFTISRDNAKKTVYLQMNSLKPEDTAVNYCAARRSGTYRYRYEYWGQGSQVTVSS | low polyreactivity
QVQLVESGGGLVQAGGSRRLSCAASGFTFYWYAMGWYRQAPGKERELVAAITRGGRTYYADSVKGRFTISRDNAKNTVYLQMNSLKPEDTAVYYCNAVEFTIAWCYTMDYWGQGIQVTVSS | high polyreactivity
QVQLVESGGGLVQAGGSRRLSCAASGGTFYYYAMGWYRQAPGKERELVAAIRGSGGSTYYADSVKGRFPISRDNAKNTVYLQMNSLKPVDTAVYYCATRGGYPKGYGYLAFNYWGQGTQVTVSS | high polyreactivity
QVQLVESGGGLVQAGGSRRLSCAASGIIFAYYAMGWYRQAPGKERELVASISSTGGSTYYADSVKGRFTISRDNAKNTVYLQMNSLKPEDTAVYYCAVDGLPPKDALHLYYYWGQVTQVTVSS | low polyreactivity
QVQLVESGGGLVQAGGSRRLSCAASGLIFDKAMGWYRQAPGKQREFVAAITYSTGSTYYADSVKGRFTISRDNAKNTVYLQMNSLKPEDTAVYYCAKDGSGHGTERDYWGQGTQVTVSS | low polyreactivity
QVQLVESGGGLVQAGGSRRLSCAASGRIICVYAMGWYRQAPGNERDLVAAITIGGSTYYADSVKGRFTISRDNAMNTFYLQMNSLKPEDTAVYYCNRRYNWYLHHYDYWGQGTQVTVSS | high polyreactivity
QVQLVESGGGLVQAGGSRRLSCAASGRSFYGNAMGWYRQAPGTERECVAGISWRGGRTYYADSVKGRFTISRDNANNTVYLQMNSLKPEETAVYYCAASAGYRGRSGYEYWGQGTQVTVSS | high polyreactivity
QVQLVESGGGLVQAGGSRRLSCAASGRTFYYAMGWYRQAPGKETQLVATITSGGGSTYYADSVKGRFSISRDNAKNTVYLQMNSLKPEDTAVYYCAADYKSSPPLPEYDYWGQGTQVTVSS | high polyreactivity
QVQLVESGGGLVQAGGSRRLSCAASGSNFRNNAIGWYRQAPGKERELVAVISRRSGNTYYADSVKGRFTISRDNGKKTVYLPMHSLKPEDTAVYYCASDYCKSSIRGDYWGQGTQVTVSS | low polyreactivity
QVQLVESGGGLVQAGGSRRLSCAASGSTFRINAMGWYRQAPGKERELVADINSGGNTTYADSVKGRFTISRDNAKNTVYLQMNSLKPEDTAVYYCAADPVFDLWEFLLDYGYDYWGQGTQVTVSS | low polyreactivity
QVQLVESGGGLVQAGGSRRLSCAASGSTFYGYAMGWYRQAPGKEREFVAAITTSGGSTYYADSVKGRFTISRDNAKNTVYLQMNSLKPEDTAVYYCARDLYTEYRWGRLTYDYWGQGTQVTVSS | low polyreactivity
QVQLVESGGGLVQAGGSRRLSWAASGSTFPRNAMGWYRQAPGKERELVAAISSGGSTYYADSVKWRFTISRDNAKNTVYLQMNSLKPEDTAVYYCAARLYWPIIVVDLYGYDYWGEGTQVTVSS | low polyreactivity
